According to the supplement of paper PMC12764529:
± gives the half width of the 95% confidence interval.

How the values were obtained:
[1] = folding stability dG unfold (combined trypsin and chymotrypsin); higher = more stable
Method in brief: (§1)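 Designed mini-proteins with no cysteine and under 80 residues were kept only if AlphaFold2 dimer inter-PAE was above 15. In a PA-tagged cDNA display construct, they were digested with trypsin and chymotrypsin and then sequenced. K50 was inferred by Bayesian fitting of counts, and unfolding free energy was derived per protease or combined against a sequence-predicted unfolded-state K50 and a shared folded-state K50.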

[2] = folding stability dG unfold from trypsin proteolysis; higher = more stable
Method in brief: as §1

[3] = folding stability dG unfold from chymotrypsin proteolysis; higher = more stable
Method in brief: as §1

Sequence | folding stability dG unfold [1] [kcal/mol] | folding stability dG unfold [2] [kcal/mol] | folding stability dG unfold [3] [kcal/mol]
SAGGSMPPIVASVVEVRFYRFEEEDRERLEAEVTLKLKDGSTATIRLEFPDLSEEELLKTVEETLLSAGGSA [r2_26_JUSTAS] | 2.31 ± 0.043 | 1.78 ± 0.042 | 2.525 ± 0.022
SVKVEVSISYDPETNTITITVRVYYKDENGNWTEVATITITIKIELPPPPPKTITLKPGVKTKEEAKKALSA [r9_888_TrROS_Hall] | 3.01 ± 0.23 | 2.63 ± 0.28 | 3.54 ± 0.26
SAGRIYVDPNMVVIEIKYPDKPMPIIIPFKDPEDQEMAKELVKKIMRYLRNEGLPVEVEVEVFPPGQPVSAG [r5_823_TrROS] | 2.11 ± 0.11 | 1.51 ± 0.026 | 2.41 ± 0.026
SAGMEKVKLTFKTEDGSEVEIEIVKNEDGSYFVKVKVDKENQEIYVFNADGELIEKIKVKSLEDALKALSAG [r5_757_TrROS_Hall] | 2.73 ± 0.12 | 1.69 ± 0.063 | 3.19 ± 0.052
SAGGKLTITLPPGVKEVKIEVDKETNEVKVTVTVEVTDENGKKHKVTRTFTFKLEDGETVTVTVTLPSAGGS [r16_552_TrROS_Hall] | 5.44 ± 0.28 | 4.42 ± 0.27 | 5.43 ± 0.13
SAGGSAGGSAGGMNIKVLKEFEFETEDGVPVRYLLVDAGGEEGETVVIKETPTSIEIIPFSAGGSAGGSAGG [r7_960_TrMRF] | 0.694 ± 0.11 | 0.856 ± 0.025 | 0.511 ± 0.17
SAGEKEYVNLPLVVKLPPGVPASLILDAAVKHGAKEVTIVEEPTPDGGMVLHINLVLPKEALPKLLESLSAG [r5_376_TrMRF] | 4.79 ± 0.3 | 4.39 ± 0.21 | 4.61 ± 0.17
SAMLKLEITLPDGTVVEVEIPLERPVPPAGEEEALAAAEAVREAVAAALGLEDAEVTMEVEEVSPEELLSAG [r14_378_JUSTAS] | 1.41 ± 0.2 | 1.65 ± 0.12 | 1.03 ± 0.051
SAGWQTIDFPIPPGEDIPIPIGNRPLRIQVDPNKNKYEIFNPFLGYRISIDVDPGAGWIKITIEPLKPPSAG [r5_302_TrROS] | 3.98 ± 0.26 | 3.34 ± 0.13 | 4.5 ± 0.15
SAGGSAGGSAGGALEEKAKEIIEELKKKGIKVKEVKTSPNEITITFEDGSTKKIPIINGSAGGSAGGSAGGS [r10_169_JUSTAS] | 2.66 ± 0.1 | 2.55 ± 0.12 | 2.54 ± 0.16
SAGGSAGGSAGMVITLPNGEKVEITFDKENKKITITFPDGKKVEIEIEGMSLEEILKALKSAGGSAGGSAGG [r11_729_TrROS_Hall] | 3.59 ± 0.089 | 3.84 ± 0.14 | 3.22 ± 0.075
SAGGSAGGAEVVKVDPKPAGVTTVLERYPDGTLRLLKETEENGKLTVSEVETIPVPDISKPPLLSAGGSAGG [r6_836_JUSTAS] | 0.0779 ± 0.11 | -0.198 ± 0.075 | 0.164 ± 0.066
SAGGSAPVTLETEFFGENGLLVRTEAVVDPATGEVTVRTETFPVITGPADNPDVVKKLLEEAGIDASAGGSA [r2_304_TrMRF] | 0.887 ± 0.23 | 0.645 ± 0.059 | 0.817 ± 0.094
SAGGSAGGSAGGEKEPVTLLVVRVDGKLVVVSEEELKKLAEELNVEVEVRLVTVTKEELKSAGGSAGGSAGG [r7_185_TrROS_Hall] | 1.57 ± 0.085 | 0.567 ± 0.038 | 1.94 ± 0.033
SAGGSAGGSAGVITVTKDPKTGKYTVTIETPSGPATTVEVSSEEEAKELAKKLGYDIDALSAGGSAGGSAGG [r11_1049_JUSTAS] | 3.82 ± 0.098 | 3.89 ± 0.14 | 3.78 ± 0.087
SAGGSAGGSNKPVYFRAKIRNPDGKPIGEIEIPAKFDSLEDARSFAENLAKDLPGYKVEIELVSAGGSAGGS [r20_201_TrROS] | 1.77 ± 0.081 | 2.061 ± 0.012 | 1.38 ± 0.084
SMLEKIEKAIESGNDGILVPLKLTPEEFKKVRAYLEELGFTLLSEEELAVGPVPVYELTFKVNTKTGEAASA [r9_498_JUSTAS] | 2.17 ± 0.13 | 1.88 ± 0.066 | 2.44 ± 0.1
SAGGSASSMLSPSLYVTTITVKKPGGMTVTETVPGTPEEVERLIEELKKKGLEVEKVDVVPVSELVSAGGSA [r15_640_JUSTAS] | 1.66 ± 0.058 | 1.9 ± 0.062 | 1.47 ± 0.034
SAGGAPLVPVSTETYTVKDSKGNEVTITIETLPDGSYRITITYPNGEVKEYEFPSKEEAEKLEITVNPSAGG [r13_109_JUSTAS] | 3.62 ± 0.14 | 3.63 ± 0.23 | 3.66 ± 0.1
SAGGWITPELIEEIAKTIAEENPENGKEVPIEVVIPFPNSVIKIEIEFDPSNGKIEIEDIKVIPPNDLSAGG [r13_37_TrROS] | 1.16 ± 0.28 | 0.67 ± 0.12 | 1.5 ± 0.12
SAVITYPIPDDKPTLILEPLPGSESLLILSTKREKIPNGTYKVEALVVRYEPALGASVEEKVELIEPIGSAG [r14_591_JUSTAS] | -0.239 ± 0.22 | -0.819 ± 0.46 | -0.216 ± 0.56

Sequence | folding stability dG unfold [1] [kcal/mol] | folding stability dG unfold [2] [kcal/mol] | folding stability dG unfold [3] [kcal/mol]
SAGGSAPPNIEREEYEFYLRNPDGKELGPAKIEVIRDPGDPDRPILTIEWPNGEPMLFDADDIEPLSAGGSA [r15_954_TrROS] | 0.317 ± 0.19 | 0.18 ± 0.052 | 0.384 ± 0.17
SAGGSAGGSAGYLELKISFFDPDGQILASITIWIEIVIPPPPKMEYERDPEDGNNKWEHDSAGGSAGGSAGG [r17_348_TrROS] | 2.26 ± 0.17 | 2.49 ± 0.23 | 2.19 ± 0.056
SAGGSAEKKVLKVKVEVVSVEVNEDGTVTVTAKVTFEDGLELTVTVTFDKETGELTIEVELRPLPPSAGGSA [r15_401_TrROS_Hall] | 3.13 ± 0.15 | 2.42 ± 0.22 | 3.48 ± 0.15
SAGGSAGGSPIKIEFPPGIKEIEPIENDPNKTIMFRFPDYLVRIRINPKNGKIDIEIVPPGDMSAGGSAGGS [r12_858_TrROS] | 1.82 ± 0.11 | 1.94 ± 0.028 | 1.9 ± 0.027
SAGGSAGGSGPELRPPDVPSTTVPLKVSPEEAKEILKELLGLPEDVEVPFGSIDPATGVITLVSAGGSAGGS [r12_815_JUSTAS] | 1.03 ± 0.12 | 1.25 ± 0.091 | 0.881 ± 0.042
SAGMVKTVTLSREEVEKLVRELGRSPEEMTLEEFAERLEELFPGATVTVTVDTKTGTYTITITFPPSLASAG [r5_264_JUSTAS] | 3.93 ± 0.23 | 3.61 ± 0.25 | 4.16 ± 0.085
SAGGSAGGSAGMNKKGKYTVIEELVINPKTNYLFKKKVTIYPDGKIEVKSELLGPILPTESAGGSAGGSAGG [r11_226_TrMRF] | 1.03 ± 0.06 | 0.336 ± 0.051 | 1.4 ± 0.067
SMRIHDSNGQSYTIMIRTPDPNVTPEKIVKAIDEAGYKVTEIQRPPEKGHVHINIRVRDRERAIEAIKELSA [r9_1154_TrROS] | 0.0402 ± 0.12 | 0.231 ± 0.12 | -0.253 ± 0.18
SAGGSVEFEETITDPLKSLEEAKALAEEIEAELKAKGYKVTVTVTVVPPGSVTATITVTTDPAKGKKASAGG [r13_697_JUSTAS] | 0.82 ± 0.22 | 0.822 ± 0.063 | 1.34 ± 0.072
KKVKIEIEVLSKTEEGYVMIAKAKYEEVEKVFEKPYKSKNPIETIKKIVKELFPGPEVTEVKVKYYPKEKKS [r1_399_TrMRF] | 1.35 ± 0.17 | 1.11 ± 0.053 | 1.47 ± 0.11
SAGGEVKPGDKVKVRLRLRVRLEDGEEVEVELEFVEVEVVPLSEEEKEKLEELKKKKPEVDPKNKELLSAGG [r13_330_TrROS_Hall] | 1.81 ± 0.3 | 1.61 ± 0.13 | 2.24 ± 0.11
SAGGSAGGSAGDDGSDLPVVDLKVSISPFVRPLPNGEEVTVWKVLVENPGSSSRSEFYFGSAGGSAGGSAGG [r17_59_TrMRF] | 0.283 ± 0.15 | 0.337 ± 0.12 | 0.118 ± 0.19
SAGGKTIWIFFPPDNPEEFLEELAQLPNVTDVEVWRHNDYYMIEIRLEGLPIEIHYNPEGYYMIEIELSAGG [r13_907_TrROS] | 3.48 ± 0.16 | 2.39 ± 0.14 | 3.71 ± 0.074
SAGGSAGGSPNPKVVPFTFPVVIPDEDGHPYLVNVTVTAIPDTDTYYARITYPDGRVEDFVLASAGGSAGGS [r12_286_TrMRF] | 2.33 ± 0.04 | 1.94 ± 0.049 | 2.494 ± 0.015
SMRVTIMIPVPPGLKNLKLEFKLPYPDGREVDVDIQVDPNYITITVEMNNPGQMDWVQERFQEEIEKLLGSA [r9_790_TrROS] | 3.64 ± 0.16 | 3.24 ± 0.1 | 4.09 ± 0.15
SAGGSAGLPEAIAEAIARELQAEPGYELDVEAEVDPETGTLHIRARVRLPDDDTWFELEITVPLPASAGGSA [r15_464_TrMRF] | 2.93 ± 0.13 | 1.75 ± 0.084 | 3.22 ± 0.12
SAGGMQALLRLPDTDEVVVLPDELLEAIASGDPERLAALPPEVREVISNVAELVVVPPPDGDPRPEGGSAGG [r13_233_TrMRF] | 0.614 ± 0.15 | 0.419 ± 0.032 | 0.496 ± 0.15
SAGGSAGGSAMKTIEIDIVIKNKETGEYYKAKAKIFENEDGSLIIEIEFEKNGKTLLIVLPPSAGGSAGGSA [r18_426_TrROS_Hall] | 3.61 ± 0.2 | 3.31 ± 0.096 | 3.82 ± 0.11
SAGGSAGGMVVRVTLPDGTVVTFEFESEEEFRKEFAASLGLAPDEIPEERIVSVERLSPEEYRSSAGGSAGG [r6_588_JUSTAS] | 1.59 ± 0.086 | 1.26 ± 0.039 | 1.64 ± 0.11
SAGDLAEYIAETLQDHFPNMEVEVEIDGVEDGYIVIDITIYFRDMKDNENKPRWVPWEIVIPPGEPLPSAGG [r19_8_TrROS] | 3.38 ± 0.19 | 2.36 ± 0.14 | 4.09 ± 0.051
SAGGSAGGSIVFRSPEQAKEWLDNFPPGNEVNIHVQGPDTGQPQEFEIKIPPPKPEYDPDGKPSAGGSAGGS [r12_393_TrROS] | -0.169 ± 0.32 | -0.124 ± 0.088 | -0.773 ± 0.54
